Measured values reported in PMC6599887, “Exploration of the TRIM Fold of MuRF1 Using EPR Reveals a Canonical Antiparallel Structure and Extended COS-Box” (Journal of Molecular Biology, 2019).
Residue numbers refer to the chain shown, from its start. Numbers in names are those of the source.

Tests used:
[1] = molecular target: the molecule itself; assay: cross-linking; zero-length disulfide cross-linking by spontaneous oxidation: 20 uM protein reduced in 50 mM Tris-HCl pH 8.0, 100 mM NaCl, 20 mM beta-mercaptoethanol, dialysed overnight at 4 °C into the same buffer without reducing agent; non-reducing against reducing SDS-PAGE, Coomassie staining
[2] = molecular target: the molecule itself; assay: PELDOR (pulsed EPR, DEER); MTSSL-labelled protein, 100 to 200 uM MuRF1 dimer, deuterated Hepes pH 8.0/NaCl buffer mixed 1:1 with D8-glycerol, flash frozen; Q-band, 50 K; distances between labels across the protomers of the dimer

B1: MuRF1-HD F163C/L276C (in cysteine-null background) (domain or fragment, UniProt Q969Q1 155-328, looked up)
chain: EVAPLQSVCQGQKTELNNSISMLVAGNDRVQTIITQLEDSRRVTKENSHQVKEELSQKFDTLYAILDEKKSELLQRITQEQEKKLSFIEALIQQYQEQLDKSTKLVETAIQSLDEPGGATFCLTAKQLIKSIVEASKGSQLGKTEQGFENMDFFTLDLEHIADALRAIDFGTDE
modifications: disulfide bonds between the introduced cysteines after spontaneous oxidation
notes: MuRF1 (TRIM63) helical domain, residues 155-328 of UniProtKB Q969Q1; not shown: His6, N-terminal, cleaved; SUMO, N-terminal, cleaved
stoichiometry N [1]: 2

B2: MuRF1-HD E243C (cysteine-null background), MTSSL-labelled (domain or fragment, UniProt Q969Q1 155-328, looked up)
chain: B1 chain with C9F, E89C, C122L
modifications: MTSSL spin label (R1) on cysteine 243
notes: MuRF1 (TRIM63) helical domain, residues 155-328 of UniProtKB Q969Q1; also called E243R1; not shown: His6, N-terminal, cleaved; SUMO, N-terminal, cleaved
binding result [2]: binds

B3: MuRF1-HD R230C (cysteine-null background), MTSSL-labelled (domain or fragment, UniProt Q969Q1 155-328, looked up)
chain: B1 chain with C9F, R76C, C122L
modifications: MTSSL spin label (R1) on cysteine 230
notes: MuRF1 (TRIM63) helical domain, residues 155-328 of UniProtKB Q969Q1; also called R230R1; not shown: His6, N-terminal, cleaved; SUMO, N-terminal, cleaved
binding result [2]: binds

B4: MuRF1-HD S202C/Q235C (in cysteine-null background) (domain or fragment, UniProt Q969Q1 155-328, looked up)
chain: B1 chain with C9F, S48C, Q81C, C122L
modifications: disulfide bonds between the introduced cysteines after spontaneous oxidation
notes: as for B1
stoichiometry N [1]: 2

B5: MuRF1-HD E200C (cysteine-null background), MTSSL-labelled (domain or fragment, UniProt Q969Q1 155-328, looked up)
chain: B1 chain with C9F, E46C, C122L
modifications: MTSSL spin label (R1) on cysteine 200
notes: MuRF1 (TRIM63) helical domain, residues 155-328 of UniProtKB Q969Q1; also called E200R1; not shown: His6, N-terminal, cleaved; SUMO, N-terminal, cleaved
binding result [2]: binds

B6: MuRF1-HD E222C (cysteine-null background), MTSSL-labelled (domain or fragment, UniProt Q969Q1 155-328, looked up)
chain: B1 chain with C9F, E68C, C122L
modifications: MTSSL spin label (R1) on cysteine 222
notes: MuRF1 (TRIM63) helical domain, residues 155-328 of UniProtKB Q969Q1; also called E222R1; not shown: His6, N-terminal, cleaved; SUMO, N-terminal, cleaved
binding result [2]: binds

B7: MuRF1-HD E192C (cysteine-null background), MTSSL-labelled (domain or fragment, UniProt Q969Q1 155-328, looked up)
chain: B1 chain with C9F, E38C, C122L
modifications: MTSSL spin label (R1) on cysteine 192
notes: MuRF1 (TRIM63) helical domain, residues 155-328 of UniProtKB Q969Q1; also called E192R1; not shown: His6, N-terminal, cleaved; SUMO, N-terminal, cleaved
binding result [2]: binds

B8: MuRF1-HD E313C (cysteine-null background), MTSSL-labelled (domain or fragment, UniProt Q969Q1 155-328, looked up)
chain: B1 chain with C9F, C122L, E159C
modifications: MTSSL spin label (R1) on cysteine 313
notes: MuRF1 (TRIM63) helical domain, residues 155-328 of UniProtKB Q969Q1; also called E313R1; not shown: His6, N-terminal, cleaved; SUMO, N-terminal, cleaved
binding result [2]: binds

B9: MuRF1-HD doubly labelled at E192R1 and R320R1 (cysteine-null background) (domain or fragment, UniProt Q969Q1 155-328, looked up)
chain: B1 chain with C9F, E38C, C122L, R166C
modifications: MTSSL spin label (R1) on cysteines 192 and 320
notes: MuRF1 (TRIM63) helical domain, residues 155-328 of UniProtKB Q969Q1; The double mutant is told only as labels placed at E192R1 and R320R1 simultaneously; the cysteine-null background follows from the methods; also called double-labeled sample; not shown: His6, N-terminal, cleaved; SUMO, N-terminal, cleaved
binding result [2]: binds

B10: MuRF1-HD K297C (cysteine-null background), MTSSL-labelled (domain or fragment, UniProt Q969Q1 155-328, looked up)
chain: B1 chain with C9F, C122L, K143C
modifications: MTSSL spin label (R1) on cysteine 297
notes: MuRF1 (TRIM63) helical domain, residues 155-328 of UniProtKB Q969Q1; also called K297R1; not shown: His6, N-terminal, cleaved; SUMO, N-terminal, cleaved
binding result [2]: binds

B11: MuRF1-HD R320C (cysteine-null background), MTSSL-labelled (domain or fragment, UniProt Q969Q1 155-328, looked up)
chain: B1 chain with C9F, C122L, R166C
modifications: MTSSL spin label (R1) on cysteine 320
notes: MuRF1 (TRIM63) helical domain, residues 155-328 of UniProtKB Q969Q1; also called R320R1; E320R1 (as printed once); not shown: His6, N-terminal, cleaved; SUMO, N-terminal, cleaved
binding result [2]: binds

B12: MuRF1-HD K212C (cysteine-null background), MTSSL-labelled (domain or fragment, UniProt Q969Q1 155-328, looked up)
chain: B1 chain with C9F, K58C, C122L
modifications: MTSSL spin label (R1) on cysteine 212
notes: MuRF1 (TRIM63) helical domain, residues 155-328 of UniProtKB Q969Q1; also called K212R1; not shown: His6, N-terminal, cleaved; SUMO, N-terminal, cleaved
binding result [2]: binds

B13: MuRF1-HD V184C/L253C (in cysteine-null background) (domain or fragment, UniProt Q969Q1 155-328, looked up)
chain: B1 chain with C9F, V30C, L99C, C122L
modifications: disulfide bonds between the introduced cysteines after spontaneous oxidation
notes: as for B1
stoichiometry N [1]: 2
